Our source for the Kd values is publication PMC13083842 (2026).

In general, Kd refers to the free concentration of one partner at which half of the binding sites on the other are occupied at equilibrium, for simple one-to-one binding. Low values mean a tighter complex, high ones a looser complex.

Test in all cases: SPR
On the technique in general: SPR reads the build-up and loss of mass on a sensor chip optically.

For experiment [1], the target named is T1, interleukin-6 (IL-6) (human, UniProt P05231 30-212).
T1 sequence (P05231 30-212): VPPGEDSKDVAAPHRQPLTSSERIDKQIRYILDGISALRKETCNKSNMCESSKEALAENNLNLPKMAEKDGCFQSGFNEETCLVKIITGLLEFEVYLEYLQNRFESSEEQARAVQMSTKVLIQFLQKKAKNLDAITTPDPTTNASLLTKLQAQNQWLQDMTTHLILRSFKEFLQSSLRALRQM
Experiment [2] addresses T1, interleukin-6 (IL-6). The source holds these as a separate data set.
In experiment [3] the target is T2, soluble IL-6 receptor (sIL-6R) (human (from the printed accession …, UniProt P08887 20-355)).
T2 chain: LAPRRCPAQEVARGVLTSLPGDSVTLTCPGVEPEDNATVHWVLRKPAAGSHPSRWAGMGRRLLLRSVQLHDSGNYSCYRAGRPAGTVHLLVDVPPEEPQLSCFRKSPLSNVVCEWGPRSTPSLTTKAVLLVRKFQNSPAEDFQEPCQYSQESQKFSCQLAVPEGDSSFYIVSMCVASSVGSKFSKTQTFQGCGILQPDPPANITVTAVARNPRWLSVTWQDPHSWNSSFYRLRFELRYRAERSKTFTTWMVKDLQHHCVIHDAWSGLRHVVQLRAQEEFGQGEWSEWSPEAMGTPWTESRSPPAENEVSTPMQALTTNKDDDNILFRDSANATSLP

Where two headings read alike, the source gives them in different places.

B1: siltuximab-TGN 1:1 (antibody, V domains shown)
VH: EVQLVESGGKLLKPGGSLKLSCAASGFTFSSFAMSWFRQSPEKRLEWVAEISSGGSYTYYPDTVTGRFTISRDNAKNTLYLEMSSLRSEDTAMYYCARGLWGYYALDYWGQGTSVTVSS
VL: QIVLIQSPAIMSASPGEKVTMTCSASSSVSYMYWYQQKPGSSPRLLIYDTSNLASGVPVRFSGSGSGTSYSLTISRMEAEDAATYYCQQWSGYPYTFGGGTKLEIK
modifications: Tris-GalNAc-PEG5 (TGN) on accessible primary amines (lysines), not site-specific; coupling ratio 1:1; GPR = 0.2 for the antibody | Tris-GalNAc-PEG5 (TGN) on accessible primary amines (lysines), not site-specific; coupling ratio 1:1; GPR = 0.2 for the antibody
For the molecule B1, in experiment [1], the Kd was < 0.019 nM.

B2: siltuximab (antibody, V domains shown)
VH: EVQLVESGGKLLKPGGSLKLSCAASGFTFSSFAMSWFRQSPEKRLEWVAEISSGGSYTYYPDTVTGRFTISRDNAKNTLYLEMSSLRSEDTAMYYCARGLWGYYALDYWGQGTSVTVSS
VL: QIVLIQSPAIMSASPGEKVTMTCSASSSVSYMYWYQQKPGSSPRLLIYDTSNLASGVPVRFSGSGSGTSYSLTISRMEAEDAATYYCQQWSGYPYTFGGGTKLEIK
As to B2, the Kd in experiment [1] is < 0.022 nM.

B3: siltuximab-TGN 1:5 (antibody, V domains shown)
VH: EVQLVESGGKLLKPGGSLKLSCAASGFTFSSFAMSWFRQSPEKRLEWVAEISSGGSYTYYPDTVTGRFTISRDNAKNTLYLEMSSLRSEDTAMYYCARGLWGYYALDYWGQGTSVTVSS
VL: QIVLIQSPAIMSASPGEKVTMTCSASSSVSYMYWYQQKPGSSPRLLIYDTSNLASGVPVRFSGSGSGTSYSLTISRMEAEDAATYYCQQWSGYPYTFGGGTKLEIK
modifications: Tris-GalNAc-PEG5 (TGN) on accessible primary amines (lysines), not site-specific; coupling ratio 1:5 | Tris-GalNAc-PEG5 (TGN) on accessible primary amines (lysines), not site-specific; coupling ratio 1:5
As to B3, the dissociation constant Kd in experiment [1] was < 0.027 nM.

B4: siltuximab-TGN 1:10 (antibody, V domains shown)
VH: EVQLVESGGKLLKPGGSLKLSCAASGFTFSSFAMSWFRQSPEKRLEWVAEISSGGSYTYYPDTVTGRFTISRDNAKNTLYLEMSSLRSEDTAMYYCARGLWGYYALDYWGQGTSVTVSS
VL: QIVLIQSPAIMSASPGEKVTMTCSASSSVSYMYWYQQKPGSSPRLLIYDTSNLASGVPVRFSGSGSGTSYSLTISRMEAEDAATYYCQQWSGYPYTFGGGTKLEIK
modifications: Tris-GalNAc-PEG5 (TGN) on accessible primary amines (lysines), not site-specific; coupling ratio 1:10 | Tris-GalNAc-PEG5 (TGN) on accessible primary amines (lysines), not site-specific; coupling ratio 1:10
Consider B4, for which the Kd in experiment [1] was < 0.036 nM.

B5: sIL-6R-TGN 1:1 (receptor)
chain: LAPRRCPAQEVARGVLTSLPGDSVTLTCPGVEPEDNATVHWVLRKPAAGSHPSRWAGMGRRLLLRSVQLHDSGNYSCYRAGRPAGTVHLLVDVPPEEPQLSCFRKSPLSNVVCEWGPRSTPSLTTKAVLLVRKFQNSPAEDFQEPCQYSQESQKFSCQLAVPEGDSSFYIVSMCVASSVGSKFSKTQTFQGCGILQPDPPANITVTAVARNPRWLSVTWQDPHSWNSSFYRLRFELRYRAERSKTFTTWMVKDLQHHCVIHDAWSGLRHVVQLRAQEEFGQGEWSEWSPEAMGTPWTESRSPPAENEVSTPMQALTTNKDDDNILFRDSANATSLP
modifications: Tris-GalNAc-PEG5 (TGN) on accessible primary amines (lysines), not site-specific; coupling ratio 1:1; GPR could not be determined
In the case of B5, the equilibrium dissociation constant (Kd) in experiment [2] was determined as 166 nM. This lies in the sub-micromolar range.

B6: sIL-6R-TGN 1:10 (receptor)
chain: LAPRRCPAQEVARGVLTSLPGDSVTLTCPGVEPEDNATVHWVLRKPAAGSHPSRWAGMGRRLLLRSVQLHDSGNYSCYRAGRPAGTVHLLVDVPPEEPQLSCFRKSPLSNVVCEWGPRSTPSLTTKAVLLVRKFQNSPAEDFQEPCQYSQESQKFSCQLAVPEGDSSFYIVSMCVASSVGSKFSKTQTFQGCGILQPDPPANITVTAVARNPRWLSVTWQDPHSWNSSFYRLRFELRYRAERSKTFTTWMVKDLQHHCVIHDAWSGLRHVVQLRAQEEFGQGEWSEWSPEAMGTPWTESRSPPAENEVSTPMQALTTNKDDDNILFRDSANATSLP
modifications: Tris-GalNAc-PEG5 (TGN) on accessible primary amines (lysines), not site-specific; coupling ratio 1:10; GPR could not be determined
As for B6, the Kd in experiment [2] was 428 nM.

B7: sIL-6R-TGN 1:5 (receptor)
chain: LAPRRCPAQEVARGVLTSLPGDSVTLTCPGVEPEDNATVHWVLRKPAAGSHPSRWAGMGRRLLLRSVQLHDSGNYSCYRAGRPAGTVHLLVDVPPEEPQLSCFRKSPLSNVVCEWGPRSTPSLTTKAVLLVRKFQNSPAEDFQEPCQYSQESQKFSCQLAVPEGDSSFYIVSMCVASSVGSKFSKTQTFQGCGILQPDPPANITVTAVARNPRWLSVTWQDPHSWNSSFYRLRFELRYRAERSKTFTTWMVKDLQHHCVIHDAWSGLRHVVQLRAQEEFGQGEWSEWSPEAMGTPWTESRSPPAENEVSTPMQALTTNKDDDNILFRDSANATSLP
modifications: Tris-GalNAc-PEG5 (TGN) on accessible primary amines (lysines), not site-specific; coupling ratio 1:5; GPR could not be determined
B7: in experiment [2], the Kd was 230 nM.

B8: tocilizumab-TGN 1:10 (antibody, V domains shown)
VH: QVQLQESGPGLVRPSQTLSLTCTVSGYSITSDHAWSWVRQPPGRGLEWIGYISYSGITTYNPSLKSRVTMLRDTSKNQFSLRLSSVTAADTAVYYCARSLARTTAMDYWGQGSLVTVSS
VL: DIQMTQSPSSLSASVGDRVTITCRASQDISSYLNWYQQKPGKAPKLLIYYTSRLHSGVPSRFSGSGSGTDFTFTISSLQPEDIATYYCQQGNTLPYTFGQGTKVEIK
modifications: Tris-GalNAc-PEG5 (TGN) on accessible primary amines (lysines), not site-specific; coupling ratio 1:10; GPR 4.75 for the antibody | Tris-GalNAc-PEG5 (TGN) on accessible primary amines (lysines), not site-specific; coupling ratio 1:10; GPR 4.75 for the antibody
B8 registered a Kd in experiment [3] of 0.212 nM.

B9: tocilizumab-TGN 1:1 (antibody, V domains shown)
VH: QVQLQESGPGLVRPSQTLSLTCTVSGYSITSDHAWSWVRQPPGRGLEWIGYISYSGITTYNPSLKSRVTMLRDTSKNQFSLRLSSVTAADTAVYYCARSLARTTAMDYWGQGSLVTVSS
VL: DIQMTQSPSSLSASVGDRVTITCRASQDISSYLNWYQQKPGKAPKLLIYYTSRLHSGVPSRFSGSGSGTDFTFTISSLQPEDIATYYCQQGNTLPYTFGQGTKVEIK
modifications: Tris-GalNAc-PEG5 (TGN) on accessible primary amines (lysines), not site-specific; coupling ratio 1:1; GPR = 0.35 for the antibody | Tris-GalNAc-PEG5 (TGN) on accessible primary amines (lysines), not site-specific; coupling ratio 1:1; GPR = 0.35 for the antibody
Consider B9, for which the Kd in experiment [3] was < 0.038 nM.

B10: tocilizumab-TGN 1:5 (antibody, V domains shown)
VH: QVQLQESGPGLVRPSQTLSLTCTVSGYSITSDHAWSWVRQPPGRGLEWIGYISYSGITTYNPSLKSRVTMLRDTSKNQFSLRLSSVTAADTAVYYCARSLARTTAMDYWGQGSLVTVSS
VL: DIQMTQSPSSLSASVGDRVTITCRASQDISSYLNWYQQKPGKAPKLLIYYTSRLHSGVPSRFSGSGSGTDFTFTISSLQPEDIATYYCQQGNTLPYTFGQGTKVEIK
modifications: Tris-GalNAc-PEG5 (TGN) on accessible primary amines (lysines), not site-specific; coupling ratio 1:5; GPR 2.51 for the antibody | Tris-GalNAc-PEG5 (TGN) on accessible primary amines (lysines), not site-specific; coupling ratio 1:5; GPR 2.51 for the antibody
The molecule B10 returned a Kd in experiment [3] of 0.093 nM.

B11: tocilizumab-TGN 1:25 (antibody, V domains shown)
VH: QVQLQESGPGLVRPSQTLSLTCTVSGYSITSDHAWSWVRQPPGRGLEWIGYISYSGITTYNPSLKSRVTMLRDTSKNQFSLRLSSVTAADTAVYYCARSLARTTAMDYWGQGSLVTVSS
VL: DIQMTQSPSSLSASVGDRVTITCRASQDISSYLNWYQQKPGKAPKLLIYYTSRLHSGVPSRFSGSGSGTDFTFTISSLQPEDIATYYCQQGNTLPYTFGQGTKVEIK
modifications: Tris-GalNAc-PEG5 (TGN) on accessible primary amines (lysines), not site-specific; coupling ratio 1:25; GPR of 15.36 for the antibody | Tris-GalNAc-PEG5 (TGN) on accessible primary amines (lysines), not site-specific; coupling ratio 1:25; GPR of 15.36 for the antibody
As for B11, in experiment [3], the Kd turned out to be 0.328 nM.

B12: tocilizumab (antibody, V domains shown)
VH: QVQLQESGPGLVRPSQTLSLTCTVSGYSITSDHAWSWVRQPPGRGLEWIGYISYSGITTYNPSLKSRVTMLRDTSKNQFSLRLSSVTAADTAVYYCARSLARTTAMDYWGQGSLVTVSS
VL: DIQMTQSPSSLSASVGDRVTITCRASQDISSYLNWYQQKPGKAPKLLIYYTSRLHSGVPSRFSGSGSGTDFTFTISSLQPEDIATYYCQQGNTLPYTFGQGTKVEIK
B12 had a Kd in experiment [3] of 0.068 nM.
